Measurements published in US20220372155A1 (LYVGEN BIOPHARMA, published 2022).

Molecular target: T1, human CD40 expressed on CHO cells (human, UniProt P25942 21-277)
T1 construct: whole, on cells; also used for the reporter cells over-expressing human CD40; also called cellular CD40; CHO-CD40 cells
Experiment: FACS, CHO cells

T1 sequence (P25942 21-277): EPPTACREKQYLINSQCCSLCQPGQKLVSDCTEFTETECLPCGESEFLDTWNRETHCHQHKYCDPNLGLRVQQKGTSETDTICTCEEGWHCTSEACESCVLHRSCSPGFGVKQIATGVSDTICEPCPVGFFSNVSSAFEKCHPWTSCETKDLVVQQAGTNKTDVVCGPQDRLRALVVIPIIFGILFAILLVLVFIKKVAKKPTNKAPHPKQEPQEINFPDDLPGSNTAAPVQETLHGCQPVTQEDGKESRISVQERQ

Binder	binding result
Ly463 (bispecific antibody, human IgG1, kappa, Ly368 HC-TM740 scFv VH-VL + Ly368 LC) heavy: QVQLKESGPGLVAPSQSLSITCTVSGFSLTDYGVRWIRQPPGKGLEWLGVIWGGGSTYYNSALKSRLSISKDNSKSQVFLKMNSLQTDDTAMYYCAKEKRRGYYYAMDYWGQGTSVTVSSASTKGPSVFPLAPSSKSTSGGTAALGCLVKDYFPEPVTVSWNSGALTSGVHTFPAVLQSSGLYSLSSVVTVPSSSLGTQTYICNVNHKPSNTKVDKKVEPKSCDKTHTCPPCPAPELLGPSVFLFPPKPKDTLMISRTPEVTCVVVDVSHEDPEVKFNWYVDGVEVHNAKTKPREEQYNSTYRVVSVLTVLHQDWLNGKEYKCKVSNKALPAPIEKTISKAKGQPREPQVYTLPPSREEMTKNQVSLTCLVKGFYPSDIAVEWESNGQPENNYKTTPPVLDSDGSFFLYSKLTVDKSRWQQGNVFSCSVMHEALHNHYTQKSLSLSPGGGGGSGGGGSGGGGSGGGGSQVQLVESGGGLVQPGGSLKLSCATSGFNFNDYFMNWVRQASGKGLEWVGQIRNKNYNYATYYTESLEGRVTISRDDSKNTAYLQMNSLKTEDTAVYYCTSYYYDGFADYFDYWGQGTTVTVSSGGGGSGGGGSGGGGSGGGGSDIQMTQSPSSLSASVGDRVTITCKASQNIYIYLNWYQQKPGKAPKLLIYNTNNLQTGVPSRFSGSGSGTDFTLTISSLQPEDFATYYCLQHSSRRTFGGGTKVEIK light: ENVLTQSPAIMSASPGEKVTMTCRASSSVSSSYLHWYQQKSGASPKLWIYSTSNLASGVPARFSGSGSGTSYSLTISSVEAEDAATYYCQQYSGYPLTFGGGTKLEIKRTVAAPSVFIFPPSDEQLKSGTASVVCLLNNFYPREAKVQWKVDNALQSGNSQESVTEQDSKDSTYSLSSTLTLSKADYEKHKVYACEVTHQGLSSPVTKSFNRGEC	binds
Ly464 (bispecific antibody, human IgG1, kappa, Ly368 HC + Ly368 LC-TM740 scFv VL-VH) heavy: QVQLKESGPGLVAPSQSLSITCTVSGFSLTDYGVRWIRQPPGKGLEWLGVIWGGGSTYYNSALKSRLSISKDNSKSQVFLKMNSLQTDDTAMYYCAKEKRRGYYYAMDYWGQGTSVTVSSASTKGPSVFPLAPSSKSTSGGTAALGCLVKDYFPEPVTVSWNSGALTSGVHTFPAVLQSSGLYSLSSVVTVPSSSLGTQTYICNVNHKPSNTKVDKKVEPKSCDKTHTCPPCPAPELLGPSVFLFPPKPKDTLMISRTPEVTCVVVDVSHEDPEVKFNWYVDGVEVHNAKTKPREEQYNSTYRVVSVLTVLHQDWLNGKEYKCKVSNKALPAPIEKTISKAKGQPREPQVYTLPPSREEMTKNQVSLTCLVKGFYPSDIAVEWESNGQPENNYKTTPPVLDSDGSFFLYSKLTVDKSRWQQGNVFSCSVMHEALHNHYTQKSLSLSPG light: ENVLTQSPAIMSASPGEKVTMTCRASSSVSSSYLHWYQQKSGASPKLWIYSTSNLASGVPARFSGSGSGTSYSLTISSVEAEDAATYYCQQYSGYPLTFGGGTKLEIKRTVAAPSVFIFPPSDEQLKSGTASVVCLLNNFYPREAKVQWKVDNALQSGNSQESVTEQDSKDSTYSLSSTLTLSKADYEKHKVYACEVTHQGLSSPVTKSFNRGECGGGGSGGGGSGGGGSGGGGSDIQMTQSPSSLSASVGDRVTITCKASQNIYIYLNWYQQKPGKAPKLLIYNTNNLQTGVPSRFSGSGSGTDFTLTISSLQPEDFATYYCLQHSSRRTFGGGTKVEIKGGGGSGGGGSGGGGSGGGGSQVQLVESGGGLVQPGGSLKLSCATSGFNFNDYFMNWVRQASGKGLEWVGQIRNKNYNYATYYTESLEGRVTISRDDSKNTAYLQMNSLKTEDTAVYYCTSYYYDGFADYFDYWGQGTTVTVSS	binds
